According to PMC4837482, “The complex binding mode of the peptide hormone H2 relaxin to its receptor RXFP1” (Nature Communications, 2016):
Where a chain is given by its changes, count along the chain named. Numbers in names are those of the source. Entries after “also recorded” stand apart in the source; their conditions may differ. Values belong to the molecule of their own block, whether it stands above or below them. Where no end group is shown, it is not given here.

Columns and labels:
RXFP1(1–72) = target: T1, RXFP1(1–72) (Homo sapiens, UniProt Q9HBX9); assay: NMR competition titration against the RXFP1(1–72)/Mn2+-DTPA-(A)-H2 complex; type: binding; conditions: 50 μM peptide added to 50 μM 15N-RXFP1(1–72) with 0.2 μM Mn2+-DTPA-(A)-H2; pH 6.8, 25 °C
T1 construct: GB1 (N, cleaved yes); made in house; host or cells: E. coli BL21 (DE3) trxB
T1 sequence (Q9HBX9 23-94 limits assumed): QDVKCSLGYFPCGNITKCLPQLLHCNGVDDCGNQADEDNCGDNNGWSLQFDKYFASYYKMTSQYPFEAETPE
Procedure: All RXFP1(1–72) protein samples for nuclear magnetic resonance (NMR) experiments were prepared from lyophilized protein in 50 mM imidazole, with 10 mM CaCl2 at pH 6.8. Recombinant human gene-2 H2 relaxin peptide was kindly provided by Corthera. EL1^(475–486)/EL2-GB1 samples were prepared as described above. Titrant and titrand were dialyzed in the same buffer in the same vessel. All NMR experiments were routinely collected at 25 °C on a 700-MHz Bruker Avance HDIII spectrometer equipped with triple resonance cryoprobe. […] Backbone assignments were made from 3D HNCACB, HNCOCACB, HNCO and HNCACO experiments. Spectra were processed using NMRPipe (ref. [43]) and typically Fourier-transformed after applying Lorentz-to-Gauss window functions in the direct dimension and cosine bells in the indirect dimensions. NMR data were analysed using SPARKY (Goddard, T.D. and Kneller, D.G., University of California, San Francisco). Assignments of the mutant RXFP1(1–72) proteins were determined from the assignments of wild-type RXFP1(1–72).
^15N{^1H}-NOE experiments[45] (2,048 × 256 data points) were acquired with a saturation pulse of 4 s and an additional relaxation delay of 5 s. Sample conditions were 150 μM RXFP(1–72) or mutants either without or with 450 μM H2 relaxin. Binding to Mn^2+-DTPA-(A)-H2 to RXFP1(1–72) and mutants was monitored by recording 2D ^1H-^15N HSQC (2,048 × 256 data points) for 0.2 μM Mn^2+-DTPA-(A)-H2 against 50 μM RXFP1(1–72). H2 relaxin and its truncates such as A-chain (9–24), H2/I5 chimera and Phe23Ala A-chain mutant H2 were titrated into a complex of 50 μM RXFP1(1–72) and 0.2 μM Mn^2+-DTPA-(A)-H2 with increasing concentrations ranging from 5 to 50 μM.

RXFP1 [1] = target: T2, RXFP1 (Homo sapiens, UniProt Q9HBX9); conditions: versus H2 relaxin; cited from earlier work
T2 construct: transiently transfected human embryonic kidney (HEK) 293T cells expressing full-length RXFP1 and mutants; expressed in transfected cells; host or cells: HEK293T
T2 sequence (Q9HBX9 1-757): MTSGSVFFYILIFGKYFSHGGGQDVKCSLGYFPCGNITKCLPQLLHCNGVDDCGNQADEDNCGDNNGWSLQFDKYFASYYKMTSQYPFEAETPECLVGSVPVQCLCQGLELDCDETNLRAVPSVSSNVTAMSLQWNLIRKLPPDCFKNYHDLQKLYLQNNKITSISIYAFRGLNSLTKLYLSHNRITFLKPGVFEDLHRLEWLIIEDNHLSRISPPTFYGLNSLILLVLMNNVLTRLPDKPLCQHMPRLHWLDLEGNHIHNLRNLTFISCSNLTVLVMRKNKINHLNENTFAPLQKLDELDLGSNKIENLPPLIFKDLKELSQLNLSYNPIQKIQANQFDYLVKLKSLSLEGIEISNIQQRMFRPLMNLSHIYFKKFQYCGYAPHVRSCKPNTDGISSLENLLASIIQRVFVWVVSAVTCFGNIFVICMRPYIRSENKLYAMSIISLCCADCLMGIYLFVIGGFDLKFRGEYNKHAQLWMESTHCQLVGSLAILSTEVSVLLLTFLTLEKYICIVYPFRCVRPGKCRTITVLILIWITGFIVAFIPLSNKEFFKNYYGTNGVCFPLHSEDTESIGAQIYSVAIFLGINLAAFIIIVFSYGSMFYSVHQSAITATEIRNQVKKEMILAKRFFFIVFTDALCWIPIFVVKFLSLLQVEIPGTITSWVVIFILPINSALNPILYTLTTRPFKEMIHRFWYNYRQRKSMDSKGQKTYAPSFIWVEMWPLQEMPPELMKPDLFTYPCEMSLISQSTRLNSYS

RXFP1 [2] = target: T2, RXFP1; conditions: versus H2 relaxin; cited from earlier work; remark: listed apart in the source
[3] = target: T3, Europium-labelled H2 relaxin (human, UniProt P04090 162-185; P04090 25-53, DTPA cage loaded with Eu^3+ on the N-terminus of the A-chain); assay: europium-labelled ligand saturation binding on cells (time-resolved fluorescence); HEK293T cells transiently transfected with receptor, 96-well plates; increasing Eu-H2 relaxin (maximum 15 nM) with or without 1 μM unlabelled H2 relaxin, 1 h, room temperature; 20 mM HEPES pH 7.5, 1.5 mM CaCl2, 50 mM NaCl, 0.01% NaN3, 1% BSA; one-site fit; conditions: one partner purified
T3 construct: A chain of human gene-2 (H2) relaxin; numbers count on: the A chain; B chain of human gene-2 (H2) relaxin; numbers count on: the B chain; also called Eu-H2 relaxin; Eu-H2

Molecule: A-chain (9–24) H2: N-terminally truncated A-chain (9–24) H2 peptide (KCCHVGCTKRSLARFC; ends and bridges not checked; cysteine pairing not given here; UniProt P04090 170-185, looked up, fragment)
competition with Mn2+-DTPA-(A)-H2 for RXFP1(1–72) (peak intensities, chemical shifts) (RXFP1(1–72)): the gain in peak intensity was not as pronounced as that recorded with native H2 peptide
affinity for RXFP1 (RXFP1 [1]): decreased
potency for RXFP1 (RXFP1 [2]): decreased

competition with Mn2+-DTPA-(A)-H2 for RXFP1(1–72) (peak intensities, chemical shifts) (RXFP1(1–72)): did not compete
Molecule: F23A: H2 relaxin mutant F23A; destabilizes the secondary structure of the A-chain (QLYSALANKCCHVGCTKRSLARAC; ends and bridges not checked; cysteine pairing not given here; UniProt P04090 162-185, looked up, variant F23A)
binding affinity for RXFP1 (RXFP1 [1]): significant loss
activation of RXFP1 (RXFP1 [2]): significant loss

Molecule: H2-(B1–25): B-chain truncate of H2 relaxin (DSWMEEVIKLCGRELVRAQIAICGM; ends and bridges not checked; cysteine pairing not given here; UniProt P04090 25-49, looked up, fragment)
competition with Mn2+-DTPA-(A)-H2 for RXFP1(1–72) (peak intensities, chemical shifts) (RXFP1(1–72)): did not detect any significant difference in binding
affinity at RXFP1 (RXFP1 [1]): retain their native affinity and potency
potency at RXFP1 (RXFP1 [2]): retain their native affinity and potency

Molecule: H2-(B5–29): B-chain truncate of H2 relaxin (EEVIKLCGRELVRAQIAICGMSTWS; ends and bridges not checked; cysteine pairing not given here; UniProt P04090 29-53, looked up, fragment)
competition with Mn2+-DTPA-(A)-H2 for RXFP1(1–72) (peak intensities, chemical shifts) (RXFP1(1–72)): did not detect any significant difference in binding
affinity at RXFP1 (RXFP1 [1]): retain their native affinity and potency
potency at RXFP1 (RXFP1 [2]): retain their native affinity and potency

Molecule: H2/I5-2: A-chain H2 chimeric analogue; His12 and Val13 (H2) replaced by Thr12 and Asp13 (INSL5) (QLYSALANKCCTDGCTKRSLARFC; ends and bridges not checked; cysteine pairing not given here; UniProt P04090 162-185, looked up, variant H12T V13D)
competition with Mn2+-DTPA-(A)-H2 for RXFP1(1–72) (peak intensities, chemical shifts) (RXFP1(1–72)): no changes were observed in peak intensities or chemical shifts; also recorded: could not bind
binding affinity for RXFP1 (RXFP1 [1]): modest loss of binding
activation of RXFP1 (RXFP1 [2]): retains the ability to activate

Kd [3]: > 20 nM
B1: RXFP1 G41A/D42A, full length (receptor)
chain: QDVKCSLGYFPCGNITKCLPQLLHCNGVDDCGNQADEDNCAANNGWSLQFDKYFASYYKMTSQYPFEAETPECLVGSVPVQCLCQGLELDCDETNLRAVPSVSSNVTAMSLQWNLIRKLPPDCFKNYHDLQKLYLQNNKITSISIYAFRGLNSLTKLYLSHNRITFLKPGVFEDLHRLEWLIIEDNHLSRISPPTFYGLNSLILLVLMNNVLTRLPDKPLCQHMPRLHWLDLEGNHIHNLRNLTFISCSNLTVLVMRKNKINHLNENTFAPLQKLDELDLGSNKIENLPPLIFKDLKELSQLNLSYNPIQKIQANQFDYLVKLKSLSLEGIEISNIQQRMFRPLMNLSHIYFKKFQYCGYAPHVRSCKPNTDGISSLENLLASIIQRVFVWVVSAVTCFGNIFVICMRPYIRSENKLYAMSIISLCCADCLMGIYLFVIGGFDLKFRGEYNKHAQLWMESTHCQLVGSLAILSTEVSVLLLTFLTLEKYICIVYPFRCVRPGKCRTITVLILIWITGFIVAFIPLSNKEFFKNYYGTNGVCFPLHSEDTESIGAQIYSVAIFLGINLAAFIIIVFSYGSMFYSVHQSAITATEIRNQVKKEMILAKRFFFIVFTDALCWIPIFVVKFLSLLQVEIPGTITSWVVIFILPINSALNPILYTLTTRPFKEMIHRFWYNYRQRKSMDSKGQKTYAPSFIWVEMWPLQEMPPELMKPDLFTYPCEMSLISQSTRLNSYS

Kd [3]: > 20 nM
B2: RXFP1 G45A/W46A, full length (receptor)
chain: B1 chain with A41G, A42D, G45A, W46A
